Laboratory results published in patent US20170035894A1, “DRUG DELIVERY CONJUGATES FOR TREATING RESISTANT CANCER AND FOR USE IN COMBINATION THERAPY” (ENDOCYTE, INC., priority 2014, published 2017).

Assay: Maximum tolerated dose (MTD)
Type: in vivo, female Sprague-Dawley rats
Description: Maximum tolerated dose (MTD). […] Test compounds were administered by i.v., BIW, 2 wks in female Sprague-Dawley rats. […] Histopathologic changes were not observed with doses of EC1456 at or below the MTD.

In the case of `CCCC(=O)OCN(C(=O)[C@@H](NC(=O)[C@H]1CCCCN1C)C(C)CC)[C@H](C[C@@H](OC(C)=O)c1nc(C(=O)N[C@@H](Cc2ccc(O)cc2)C[C@H](C)C(=O)NNC(=O)OCCSSC[C@@H](NC(=O)[C@H](CCC(=O)NC[C@H](O)[C@@H](O)[C@H](O)[C@H](O)CO)NC(=O)[C@@H](CCC(=O)O)NC(=O)[C@H](CCC(=O)NC[C@H](O)[C@@H](O)[C@H](O)[C@H](O)CO)NC(=O)[C@@H](CCC(=O)O)NC(=O)[C@H](CCC(=O)NC[C@H](O)[C@@H](O)[C@H](O)[C@H](O)CO)NC(=O)CC[C@@H](NC(=O)c2ccc(NCc3cnc4nc(N)[nH]c(=O)c4n3)cc2)C(=O)O)C(=O)O)cs1)C(C)C` (stereo in doubt) [EC1456], the Histopathologic changes (doses at or below the MTD) is reported as “not observed”, the MTD at 2 wks (female, Sprague-Dawley, rat, in vivo, iv, BIW, 2 wks) is reported as ≥ 0.51 µmol/kg and the “improvement of MTD over EC0531” value (i.v., BIW, 2 wks) is reported as 65%.
